From article PMC5424357

How the values were obtained:
Experiment in all cases: purified protein
Conditions in all cases: optimal conditions (optimum pH 8.0, 30 °C), substrate range stated 0.2–2.4 mM
[1] = tested on: C#CCOC(=O)[C@@H](C)Oc1ccc(Oc2ncc(Cl)cc2F)cc1
[2] = tested on: CCCCOC(=O)[C@@H](C)Oc1ccc(Oc2ccc(C#N)cc2F)cc1
[3] = tested on: CCOC(=O)[C@@H](C)Oc1ccc(Oc2nc3ccc(Cl)cc3o2)cc1
[4] = tested on: COC(=O)[C@@H](C)Oc1ccc(Oc2ncc(C(F)(F)F)cc2Cl)cc1
[5] = tested on: C[C@@H](Oc1ccc(Oc2cnc3cc(Cl)ccc3n2)cc1)C(=O)OCC1CCCO1

## QpeH (Pseudomonas sp.)
[1]
  Km: 174.0 ± 4.2 µM
  kcat: 37.1 ± 2.9 s⁻¹
  kcat/Km: 210000 ± 20000 M⁻¹ s⁻¹
[2]
  Km: 158.2 ± 3.5 µM
  kcat: 41.1 ± 4.1 s⁻¹
  kcat/Km: 260000 ± 30000 M⁻¹ s⁻¹
[3]
  Km: 26.9 ± 4.3 µM
  kcat: 162 ± 3.4 s⁻¹
  kcat/Km: 6.01e+06 ± 50000 M⁻¹ s⁻¹
[4]
  Km: 113.9 ± 3.8 µM
  kcat: 67.4 ± 2.6 s⁻¹
  kcat/Km: 590000 ± 40000 M⁻¹ s⁻¹
[5]
  Km: 29.5 ± 2.7 µM
  kcat: 146 ± 3.3 s⁻¹
  kcat/Km: 4.96e+06 ± 90000 M⁻¹ s⁻¹
